Columns and labels:
[1] = molecular target: T. brucei coronin coiled-coil domain (T. brucei) (UniProt Q57W63); test: SAXS
[2] = molecular target: T. brucei coronin coiled-coil domain (T. brucei) (UniProt Q57W63); test: cross-linking
[3] = molecular target: T. brucei coronin coiled-coil domain (T. brucei) (UniProt Q57W63); test: SEC
[4] = molecular target: T. brucei coronin coiled-coil domain (T. brucei) (UniProt Q57W63); test: crystal structure
[5] = molecular target: T. brucei coronin coiled-coil domain V493I–V507M (T. brucei) (UniProt Q57W63); test: crystal structure
[6] = molecular target: T. brucei coronin coiled-coil domain V507M (T. brucei) (UniProt Q57W63); test: crystal structure

“T. brucei coronin coiled-coil domain (from UniProt Q57W63 477-523) (domain or fragment)” was tested, and the stoichiometry N [1] was 4, the stoichiometry N [2] was 4 and the stoichiometry N [3] was 4. The stoichiometry N [4] was 4.
Work on “T. brucei coronin coiled-coil domain V493I–V507M (from UniProt Q57W63 477-523) (domain or fragment)” yielded a stoichiometry N [5] of 4.
Work on “T. brucei coronin coiled-coil domain V507M (from UniProt Q57W63 477-523) (domain or fragment)” yielded a stoichiometry N [6] of 4.
